Experimental data published in article PMC9720396, “Autoreactivity and broad neutralization of antibodies against HIV-1 are governed by distinct mutations: Implications for vaccine design strategies” (Frontiers in Immunology, 2022).

Legend:
[1] = target: T1, host protein UBE3A (Abcam), coupled to Luminex beads, Q05086; experiment: Luminex bead assay; conditions: chain shown with the change; left panel; highest antibody concentration plotted, est. 2000 ng/ml; parent: est. 12; read off a plot
T1 chain: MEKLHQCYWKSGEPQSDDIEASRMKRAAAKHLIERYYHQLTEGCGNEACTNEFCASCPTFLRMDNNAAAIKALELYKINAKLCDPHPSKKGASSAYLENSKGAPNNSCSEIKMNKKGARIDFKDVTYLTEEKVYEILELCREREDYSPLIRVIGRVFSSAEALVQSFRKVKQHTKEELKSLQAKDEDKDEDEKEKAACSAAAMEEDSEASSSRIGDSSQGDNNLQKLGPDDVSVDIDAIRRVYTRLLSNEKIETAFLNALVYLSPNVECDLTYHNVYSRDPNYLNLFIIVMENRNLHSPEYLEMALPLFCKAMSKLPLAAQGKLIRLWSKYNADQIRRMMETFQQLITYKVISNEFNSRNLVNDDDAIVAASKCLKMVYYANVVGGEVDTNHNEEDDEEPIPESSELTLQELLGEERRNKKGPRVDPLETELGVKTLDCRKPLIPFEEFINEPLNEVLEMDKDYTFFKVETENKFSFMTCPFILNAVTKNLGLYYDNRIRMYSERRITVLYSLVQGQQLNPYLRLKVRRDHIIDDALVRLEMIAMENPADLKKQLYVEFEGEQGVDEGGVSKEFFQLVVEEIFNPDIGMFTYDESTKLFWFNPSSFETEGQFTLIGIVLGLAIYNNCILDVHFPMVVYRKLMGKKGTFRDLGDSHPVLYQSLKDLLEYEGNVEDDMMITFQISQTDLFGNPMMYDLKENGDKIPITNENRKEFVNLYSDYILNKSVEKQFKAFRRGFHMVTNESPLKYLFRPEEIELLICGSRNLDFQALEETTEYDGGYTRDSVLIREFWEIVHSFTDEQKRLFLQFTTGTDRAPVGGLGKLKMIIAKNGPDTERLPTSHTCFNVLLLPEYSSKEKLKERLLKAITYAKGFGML

[2] = target: T2, UBE3A on the ProtoArray human protein microarray (Homo sapiens, UniProt Q05086); experiment: peptide or protein array; ProtoArray (Invitrogen) with 9,400 human proteins, in duplicate; 2 µg/ml recombinant Ab, 1.5 hours at 4°C; detected with Alexa Fluor 647 anti-human IgG; compared with the control Ab 151K; conditions: both partners purified
T2 construct: UBE3A, one of the 9,400 human proteins on the ProtoArray; source: bought: Invitrogen ProtoArray

[3] = target: host proteins on the ProtoArray (9,400 human proteins) (human); experiment: as above
Cen B = target: T3, Cen B (Homo sapiens (assumed), UniProt P07199); experiment: ELISA; autoantigen ELISA (legend: Athena autoantigen assay); antigens coated at 20 µg/ml overnight at 4°C; Abs in serial dilutions 45 min at RT; HRP anti-human IgG, TMB, 450 nm; conditions: both partners purified
T3 construct: Cen B autoantigen (centromere protein B) of the autoantigen ELISA

[4] = target: T4, host protein UBE3A (Abcam), coupled to Luminex beads (Homo sapiens, UniProt Q05086); experiment: Luminex bead-based binding assay; UBE3A (Abcam) covalently linked to carboxylated beads; Abs serially diluted 1:3 from 2 µg/ml in PBS with 0.05% NaN3, 0.05% Tween 20, 1% BSA and 1% milk; 2 hours at room temperature; detected with PE goat anti-human IgG; conditions: both partners purified
T4 construct: UBE3A, host protein; bought from Abcam (printed there as UBE34); also called UBE34; source: bought: Abcam

T3 sequence (P07199 whole entry): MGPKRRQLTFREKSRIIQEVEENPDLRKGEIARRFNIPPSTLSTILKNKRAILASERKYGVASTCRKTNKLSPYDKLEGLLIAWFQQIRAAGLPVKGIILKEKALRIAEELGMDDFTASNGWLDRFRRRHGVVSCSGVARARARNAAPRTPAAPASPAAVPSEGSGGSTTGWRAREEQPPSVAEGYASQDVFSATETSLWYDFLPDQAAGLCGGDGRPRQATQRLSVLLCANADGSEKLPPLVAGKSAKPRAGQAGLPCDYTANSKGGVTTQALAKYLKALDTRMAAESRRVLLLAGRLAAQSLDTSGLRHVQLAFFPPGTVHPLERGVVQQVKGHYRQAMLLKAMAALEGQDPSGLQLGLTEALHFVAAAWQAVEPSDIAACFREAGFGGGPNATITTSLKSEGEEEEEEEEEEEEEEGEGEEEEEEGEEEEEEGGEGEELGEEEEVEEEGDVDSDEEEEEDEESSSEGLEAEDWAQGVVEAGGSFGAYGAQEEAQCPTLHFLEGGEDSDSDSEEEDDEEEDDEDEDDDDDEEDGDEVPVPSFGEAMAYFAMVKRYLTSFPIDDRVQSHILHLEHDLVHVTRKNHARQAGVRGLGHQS

B1: IA2_E64K (antibody, V domains shown)
V domain 1: QVQLQESGPGVVKSSETLSLTCTVSGGSMGGTYWSWLRLSPGKGLEWIGYIFHTGHTNYNPSLKGRVSISVDTSEDQFSLRLRSVTAADTAVYFCASLPRGQLVNAYFRNWGRGTLVSVTA
V domain 2: SYELTQPPSVSVSPGQTATITCSGDKVASKNVCWYQVKPGQSPEVVMYENYKRPSGIPDRFSGSKSGSTATLTIRGTQATDEADYYCQVWDSFSTFVFGSGTQVTV
notes: as the heavy chain of m8 (IA2); as the light chain of m8 (IA2); recombinant IgG; also called the E64K mutant; IA2 E64K mutant; source: Expi293, transiently transfected, purified (Protein A agarose)
response [1]: 2200 gMFI | fold higher binding than Abs without E64K [2]: ~10 fold | polyreactivity index (PI) [3]: 0.14 | binding result (Cen B): binds

B2: CH103 VL mutant with the 3-aa insertion (DKV) (antibody, V domains shown)
V domain 1: QVQLQESGPGVVKSSETLSLTCTVSGGSMGGTYWSWLRLSPGKGLEWIGYIFHTGETNYSPSLKGRVSISVDTSEDQFSLRLRSVTAADTAVYFCASLPRGQLVNAYFRNWGRGSLVSVTA
V domain 2: SYELTQPPSVSVSPGQTATITCSGDKVASTNVCWYQVKPGQSPEVVIFENYKRPSGIPDRFSGSKSGSTATLTIRGTQAIDEADYYCQVWDSFSTFVFGSGTQVTV
notes: as the heavy chain of m10 (CH103); as the light chain of m10 (CH103) with DKV inserted as in CH106; recombinant IgG; also called 3-aa (DKV) insertion; source: Expi293, transiently transfected, purified (Protein A agarose)
binding result [4]: binds

B3: CH103 VL D85E mutant (antibody, V domains shown)
V domain 1: QVQLQESGPGVVKSSETLSLTCTVSGGSMGGTYWSWLRLSPGKGLEWIGYIFHTGETNYSPSLKGRVSISVDTSEDQFSLRLRSVTAADTAVYFCASLPRGQLVNAYFRNWGRGSLVSVTA
V domain 2: SYELTQPPSVSVSPGQTATITCSGASTNVCWYQVKPGQSPEVVIFENYKRPSGIPDRFSGSKSGSTATLTIRGTQAIDEAEYYCQVWDSFSTFVFGSGTQVTV
notes: as the heavy chain of m10 (CH103); as the light chain of m10 (CH103); recombinant IgG; source: Expi293, transiently transfected, purified (Protein A agarose)
binding result [4]: binds

B4: CH106, mature CD4 binding site bnAb (antibody, V domains shown)
V domain 1: QVQLQESGPGVVKSSETLSLTCSVSGGSMGGTYWSWLRLSPGKGLEWIGYIFHTGHTNYSPSLKGRVSISVDTSEDQFSLRLRSVTAADTAVYFCASLPRGQLVNAYFRNWGRGILVSVTA
V domain 2: SYELTQPPSVSVSPGQTATITCSGDKVASVNVCWYQVKPGQSPDVVMYENYKRPSGIPDRFSGSKSGSTATLTIRGTQATDEAEYYCQVWDSFSTFVFGSGTQVTV
notes: as the heavy chain of m10 (CH103) with the three differences below; as the light chain of m10 (CH103) with the differences below and a 3-aa (DKV) insertion; recombinant IgG; source: Expi293, transiently transfected, purified (Protein A agarose)
binding result [4]: binds

B5: CH103 mutant containing both the E56H and E45D mutations (antibody, V domains shown)
V domain 1: QVQLQESGPGVVKSSETLSLTCTVSGGSMGGTYWSWLRLSPGKGLEWIGYIFHTGHTNYSPSLKGRVSISVDTSEDQFSLRLRSVTAADTAVYFCASLPRGQLVNAYFRNWGRGSLVSVTA
V domain 2: SYELTQPPSVSVSPGQTATITCSGASTNVCWYQVKPGQSPDVVIFENYKRPSGIPDRFSGSKSGSTATLTIRGTQAIDEADYYCQVWDSFSTFVFGSGTQVTV
notes: as the heavy chain of m10 (CH103); as the light chain of m10 (CH103); recombinant IgG; the double mutant is named only in the results; also called CH103 VH E56H + VL E45D; source: Expi293, transiently transfected, purified (Protein A agarose)
binding result [4]: binds

B6: CH103 VL E45D mutant (antibody, V domains shown)
V domain 1: QVQLQESGPGVVKSSETLSLTCTVSGGSMGGTYWSWLRLSPGKGLEWIGYIFHTGETNYSPSLKGRVSISVDTSEDQFSLRLRSVTAADTAVYFCASLPRGQLVNAYFRNWGRGSLVSVTA
V domain 2: SYELTQPPSVSVSPGQTATITCSGASTNVCWYQVKPGQSPDVVIFENYKRPSGIPDRFSGSKSGSTATLTIRGTQAIDEADYYCQVWDSFSTFVFGSGTQVTV
notes: as the heavy chain of m10 (CH103); as the light chain of m10 (CH103); recombinant IgG; also called the VL E45D mutant; source: Expi293, transiently transfected, purified (Protein A agarose)
binding result [4]: binds

B7: IA2, inferred late intermediate of the CH103-106 bnAb lineage (antibody, V domains shown)
V domain 1: QVQLQESGPGVVKSSETLSLTCTVSGGSMGGTYWSWLRLSPGKGLEWIGYIFHTGHTNYNPSLEGRVSISVDTSEDQFSLRLRSVTAADTAVYFCASLPRGQLVNAYFRNWGRGTLVSVTA
V domain 2: SYELTQPPSVSVSPGQTATITCSGDKVASKNVCWYQVKPGQSPEVVMYENYKRPSGIPDRFSGSKSGSTATLTIRGTQATDEADYYCQVWDSFSTFVFGSGTQVTV
notes: same light chain as IA1; recombinant IgG; source: Expi293, transiently transfected, purified (Protein A agarose)
binding result [4]: no binding (tested: 2 µg/ml)

B8: CH103 VH S107I mutant (antibody, V domains shown)
V domain 1: QVQLQESGPGVVKSSETLSLTCTVSGGSMGGTYWSWLRLSPGKGLEWIGYIFHTGETNYSPSLKGRVSISVDTSEDQFSLRLRSVTAADTAVYFCASLPRGQLVNAYFRNWGRGILVSVTA
V domain 2: SYELTQPPSVSVSPGQTATITCSGASTNVCWYQVKPGQSPEVVIFENYKRPSGIPDRFSGSKSGSTATLTIRGTQAIDEADYYCQVWDSFSTFVFGSGTQVTV
notes: as for B3
binding result [4]: binds

B9: CH103, mature CD4 binding site bnAb (antibody, V domains shown)
V domain 1: QVQLQESGPGVVKSSETLSLTCTVSGGSMGGTYWSWLRLSPGKGLEWIGYIFHTGETNYSPSLKGRVSISVDTSEDQFSLRLRSVTAADTAVYFCASLPRGQLVNAYFRNWGRGSLVSVTA
V domain 2: SYELTQPPSVSVSPGQTATITCSGASTNVCWYQVKPGQSPEVVIFENYKRPSGIPDRFSGSKSGSTATLTIRGTQAIDEADYYCQVWDSFSTFVFGSGTQVTV
notes: recombinant IgG; source: Expi293, transiently transfected, purified (Protein A agarose)
binding result [4]: binds

B10: CH103 VL I48M mutant (antibody, V domains shown)
V domain 1: QVQLQESGPGVVKSSETLSLTCTVSGGSMGGTYWSWLRLSPGKGLEWIGYIFHTGETNYSPSLKGRVSISVDTSEDQFSLRLRSVTAADTAVYFCASLPRGQLVNAYFRNWGRGSLVSVTA
V domain 2: SYELTQPPSVSVSPGQTATITCSGASTNVCWYQVKPGQSPEVVMFENYKRPSGIPDRFSGSKSGSTATLTIRGTQAIDEADYYCQVWDSFSTFVFGSGTQVTV
notes: as for B3
fold reduction of binding against parental CH103 [4]: ~10 fold

B11: CH103 VH T23S mutant (antibody, V domains shown)
V domain 1: QVQLQESGPGVVKSSETLSLTCSVSGGSMGGTYWSWLRLSPGKGLEWIGYIFHTGETNYSPSLKGRVSISVDTSEDQFSLRLRSVTAADTAVYFCASLPRGQLVNAYFRNWGRGSLVSVTA
V domain 2: SYELTQPPSVSVSPGQTATITCSGASTNVCWYQVKPGQSPEVVIFENYKRPSGIPDRFSGSKSGSTATLTIRGTQAIDEADYYCQVWDSFSTFVFGSGTQVTV
notes: as for B3
binding result [4]: binds

B12: IA1, inferred late intermediate of the CH103-106 bnAb lineage (antibody, V domains shown)
V domain 1: QVQLQESGPGVVKSSETLSLTCTVSGGSMGGTYWSWLRLSPGKGLEWIGYIFHTGHTNYSPSLKGRVSISVDTSEDQFSLRLRSVTAADTAVYFCASLPRGQLVNAYFRNWGRGTLVSVTA
V domain 2: SYELTQPPSVSVSPGQTATITCSGDKVASKNVCWYQVKPGQSPEVVMYENYKRPSGIPDRFSGSKSGSTATLTIRGTQATDEADYYCQVWDSFSTFVFGSGTQVTV
notes: as the heavy chain of m8 (IA2) with the two changes below; same light chain as IA2; recombinant IgG; also called 1A1; source: Expi293, transiently transfected, purified (Protein A agarose)
fold higher binding than Abs without E64K [2]: ~10 fold | polyreactivity index (PI) [3]: 0.64

B13: CH103 VH E56H mutant (antibody, V domains shown)
V domain 1: QVQLQESGPGVVKSSETLSLTCTVSGGSMGGTYWSWLRLSPGKGLEWIGYIFHTGHTNYSPSLKGRVSISVDTSEDQFSLRLRSVTAADTAVYFCASLPRGQLVNAYFRNWGRGSLVSVTA
V domain 2: SYELTQPPSVSVSPGQTATITCSGASTNVCWYQVKPGQSPEVVIFENYKRPSGIPDRFSGSKSGSTATLTIRGTQAIDEADYYCQVWDSFSTFVFGSGTQVTV
notes: as the heavy chain of m10 (CH103); as the light chain of m10 (CH103); recombinant IgG; also called the VH E56H mutant; source: Expi293, transiently transfected, purified (Protein A agarose)
binding result [4]: binds | binding result (Cen B): binds

B14: CH103 VL F49Y mutant (antibody, V domains shown)
V domain 1: QVQLQESGPGVVKSSETLSLTCTVSGGSMGGTYWSWLRLSPGKGLEWIGYIFHTGETNYSPSLKGRVSISVDTSEDQFSLRLRSVTAADTAVYFCASLPRGQLVNAYFRNWGRGSLVSVTA
V domain 2: SYELTQPPSVSVSPGQTATITCSGASTNVCWYQVKPGQSPEVVIYENYKRPSGIPDRFSGSKSGSTATLTIRGTQAIDEADYYCQVWDSFSTFVFGSGTQVTV
notes: as for B3
fold reduction of binding against parental CH103 [4]: ~10 fold

B15: CH103 VL I81T mutant (antibody, V domains shown)
V domain 1: QVQLQESGPGVVKSSETLSLTCTVSGGSMGGTYWSWLRLSPGKGLEWIGYIFHTGETNYSPSLKGRVSISVDTSEDQFSLRLRSVTAADTAVYFCASLPRGQLVNAYFRNWGRGSLVSVTA
V domain 2: SYELTQPPSVSVSPGQTATITCSGASTNVCWYQVKPGQSPEVVIFENYKRPSGIPDRFSGSKSGSTATLTIRGTQATDEADYYCQVWDSFSTFVFGSGTQVTV
notes: as for B3
binding result [4]: binds

B16: CH103 VL T31V mutant (antibody, V domains shown)
V domain 1: QVQLQESGPGVVKSSETLSLTCTVSGGSMGGTYWSWLRLSPGKGLEWIGYIFHTGETNYSPSLKGRVSISVDTSEDQFSLRLRSVTAADTAVYFCASLPRGQLVNAYFRNWGRGSLVSVTA
V domain 2: SYELTQPPSVSVSPGQTATITCSGASVNVCWYQVKPGQSPEVVIFENYKRPSGIPDRFSGSKSGSTATLTIRGTQAIDEADYYCQVWDSFSTFVFGSGTQVTV
notes: as for B3
binding result [4]: binds
